Reference: patent US20230406921A1 (MABWELL SHANGHAI BIOSCIENCE, published 2023)
Residue numbers refer to the chain shown, from its start. Values belong to the binder of their own block, whether it stands above or below them.

Experiments:
[1] = biological target: T1, CD47 on the surface of tumor cells (human, UniProt Q08722 19-323); assay: flow cytometry on A431 cells
T1 construct: whole, on cells; Same protein as m4; also called CD47 antigen on the surface of U937 and CCRF cells; SKOV-3

CD47-His = biological target: T2, CD47-His (human, UniProt Q08722 19-139, limits assumed); assay: Fortebio BLI
T2 construct: not shown: His tag

[2] = biological target: T1, CD47 on the surface of tumor cells; assay: FACS on U937 cells
[3] = biological target: T1, CD47 on the surface of tumor cells; assay: FACS on CCRF cells
[4] = biological target: T3, recombinant antigen of the extracellular region of CD47 (Sino Biological, Cat: 12283-H08H) (human, UniProt Q08722 19-139); assay: Fortebio BLI, recombinant CD47 extracellular region
T3 construct: extracellular domain; also called recombinant CD47 extracellular region; CD47 recombinant protein

[5] = biological target: T3, recombinant antigen of the …; assay: Fortebio Octet QKe, antibody on AHC sensor, CD47 100 nM in solution
Protocol: The affinity of the antibody was determined by Octet QKe instrument of Fortebio Company. […] The kinetic parameters were determined.

[6] = biological target: T1, CD47 on the surface of tumor cells; assay: FACS blocking assay on CCRF cells; blocked ligand FITC-labelled rhSIRPα-Fc
[7] = biological target: T1, CD47 on the surface of tumor cells; assay: FACS blocking assay on U937 cells; blocked ligand FITC-labelled rhSIRPα-Fc
[8] = biological target: T4, CD47 on the surface of human red blood cells (human, UniProt Q08722 19-323); assay: FACS, hRBC, 500 nM
T4 construct: whole, on cells; Same protein as m3, on red blood cells; also called hRBC; RBC
Protocol: (§1) The difference between the binding of the mutant to CD47 on the surface of tumor cells and CD47 on the surface of red blood cells was evaluated.

[9] = biological target: T1, CD47 on the surface of tumor cells; assay: FACS, tumor cells, 1 nM
Protocol: as §1

human PD-L1 on cells = biological target: T5, human PD-L1 on cells (human, UniProt Q9NZQ7 19-290); assay: flow cytometry on A431 cells
T5 construct: whole, on cells; also called MC38-hPD-L1/hCD47 cells; A431 cells
T5 sequence (Q9NZQ7 19-290): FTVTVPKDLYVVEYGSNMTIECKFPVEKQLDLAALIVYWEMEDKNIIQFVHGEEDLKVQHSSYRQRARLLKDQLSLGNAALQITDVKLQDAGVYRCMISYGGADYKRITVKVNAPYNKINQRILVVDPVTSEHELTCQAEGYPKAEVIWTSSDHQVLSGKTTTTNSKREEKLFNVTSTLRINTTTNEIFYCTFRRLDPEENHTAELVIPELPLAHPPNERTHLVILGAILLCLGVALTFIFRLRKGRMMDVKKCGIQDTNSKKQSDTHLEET

[10] = biological target: T3, recombinant antigen of the …; assay: Fortebio BLI, antibody on AHC sensor, CD47 extracellular region 100 nM;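 further: antibody held on the sensor through anti-human Fc capture, CD47 antigen in solution, association and dissociation phases each lasting 300 s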
Protocol: (§2) The affinity between the obtained mutant antibody and the CD47 recombinant protein was determined by Fortebio. The antibody was immobilized on the surface of a sensor with the anti-human Fc capture antibody (AHC Sensor), and reacted with the recombinant antigen of the extracellular region of CD47 (with a working concentration of 100 nM) in the liquid phase. The duration for binding and dissociation was both 300 seconds. The kinetic parameters were determined.

[11] = biological target: T3, recombinant antigen of the …; assay: Fortebio BLI, antibody on AHC sensor, CD47 extracellular region 100 nM; Table 6 (heavy chain mutant series);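 on koff: antibody held on the sensor through anti-human Fc capture, CD47 antigen in solution, association and dissociation phases each lasting 300 s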;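 on kon: antibody held on the sensor through anti-human Fc capture, CD47 antigen in solution, association and dissociation phases each lasting 300 s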
Protocol: as §2

- EC50 (read off the curve) [1]: 2 to 3 nM
B1: 1F8 (antibody, human IgG4, V domains shown)
VH: KVQLVESGGGLVKPGGSLRLSCAASGFTFSNAWMNWVRQAPGKGLEWVGRIKRKTDGETTDYAAPVKGRFSISRDDSKNTLYLQMNSLKTEDTAVYYCAGSNRAFDIWGQGTMVTVSA
VL: DIVMTQSPDSLAVSLGERATINCKSSQSVLYSSNNRNYLAWYQQKPGQPPKLLINQASTRASGVPDRFSGSGSGTEFTLIISSLHAEDVAIYYCQQYYTPPLAFGGGTKLEIK
notes: also called anti-CD47 antibody 1F8; control anti-CD47 monoclonal antibody 1F8

- EC50 (read off the curve) (human PD-L1 on cells): ~0.1 nM
B4: anti-PD-L1 monoclonal antibody (hz182) (antibody, human IgG4 S228P, kappa, V domains shown)
VH: QLVQSGAEVKKPGATVKISCKVSGFNIKDIYMHWVQQAPGKGLEWMGRIDPANANTKYDPKFQDRVTITADTSTNTAYMELSSLRSEDTAVYYCASGQLGPLGFDYWGQGTTVTVSS
VL: DIQMTQSPSSLSASVGDRVTITCRASQDISNYLNWYQQKPGKAPKLLLYYTSRLHSGVPSRFSGSGSGTDYTLTISSLQPEDFATYFCQQGAGRPYTFGGGTKVEIKR
notes: also called humanized anti-human PD-L1 antibody; anti-PD-L sidearm monoclonal antibody

- FACS (MFI) [8]: 17700 MFI
- FACS (MFI) [9]: 34600 MFI
B7: h140Hm13/h140Lm9 (antibody, V domains shown)
VH: EVQLVQSGAEVKKPGASVKVSCKASGYKFTNYVMSWVRQAPGQRLEWMGYINPYNDAIKYNEKFTGRVTITRDTSASTAYMELSSLRSEDTAVYYCAREGDFYANYGRLGFAYWGQGTLVTVSS
VL: DIQMTQSPSSLSASVGDRVTITCRASQDITNYLNWYQQKPGKAPKLLIYYTSRLHSGVPSRFSGSGSGTDYTFTISSLQPEDIATYFCQQGAGRPRTFGGGTKVEIK
notes: also called h140Lmut9; mut9

- FACS (MFI) [8]: 27200 MFI
B8: h140Hm13/h140Lm6 (antibody, V domains shown)
VH: B7 VH
VL: B7 VL with A92D, R94F

- FACS (MFI) [8]: 26100 MFI
B10: h140Hm13/h140Lm2 (antibody, V domains shown)
VH: B7 VH
VL: B7 VL with I48L, A92D, G93T, R94F

- FACS (MFI) [8]: 30600 MFI
B11: h140Hm13/h140Lm3 (antibody, V domains shown)
VH: B7 VH
VL: B7 VL with F73L, A92D, G93T, R94F

Continued, binder first:

B2: humanized 140 (hz140) (antibody, human IgG4 S228P, kappa, V domains shown)
VH: B7 VH with E1Q, S35H, A57G
VL: B4 VL with S30T, L48I, L73F, F83I, A92D, G93T, R94F, Y96R
notes: also called anti-CD47 monoclonal antibody; anti-CD47 sidearm monoclonal antibody
- Kd (CD47-His): 1.5 nM
- koff (CD47-His): 0.00037 s⁻¹
- kon (CD47-His): 247000 M⁻¹ s⁻¹
- EC50 (read off the curve) [2]: ~0.2 mg/L
- EC50 (read off the curve) [3]: ~0.06 mg/L
- Kd [4]: 0.688 nM
- koff [4]: 0.00022 s⁻¹
- kon [4]: 320000 M⁻¹ s⁻¹
- Kd [5]: 1.89 nM
- koff [5]: 0.000933 s⁻¹
- kon [5]: 493000 M⁻¹ s⁻¹
- IC50 (read off the curve) [6]: ~0.3 mg/L
- IC50 (read off the curve) [7]: ~0.3 mg/L

B3: h140Hm13/h140L (antibody, V domains shown)
VH: B7 VH
VL: B7 VL with A92D, G93T, R94F
notes: Heavy chain mutant 140Hm13 with the unmutated light chain of hz140
- FACS (MFI) [8]: 27400 MFI
- FACS (MFI) [9]: 102000 MFI

B5: hz140-H/hz182-L (antibody, V domains shown)
VH: B7 VH with E1Q, S35H, A57G
VL: B7 VL with T30S, I48L, F73L, I83F, R96Y
notes: Hybrid antibody: heavy chain of hz140 with the light chain of hz182
- Kd [5]: 7.03 nM
- koff [5]: 0.00108 s⁻¹
- kon [5]: 154000 M⁻¹ s⁻¹
- koff [10]: 0.000226 s⁻¹
- kon [10]: 315000 M⁻¹ s⁻¹
- Kd [11]: 0.719 nM

B6: h140Hm13/h140Lm4 (antibody, V domains shown)
VH: B7 VH
VL: B7 VL with I83F, A92D, G93T, R94F
- FACS (MFI) [8]: 24200 MFI

B9: h140Hm13/h140Lm7 (antibody, V domains shown)
VH: B7 VH
VL: B7 VL with A92D, G93T
- FACS (MFI) [8]: 16700 MFI
- FACS (MFI) [9]: 40200 MFI

B12: h140Hm13/h140Lm5 (antibody, V domains shown)
VH: B7 VH
VL: B7 VL with G93T, R94F
- FACS (MFI) [8]: 27300 MFI
